Source: PMC6497955, “Development and structural characterization of an engineered multi-copper oxidase reporter of protein–protein interactions” (The Journal of Biological Chemistry, 2019)

Substrate: COc1cc(C=NN=Cc2cc(OC)c(O)c(OC)c2)cc(OC)c1O
Assay: purified protein
Type: biochemical, Escherichia coli
Details: 50 mM acetate pH 5.2, 0.33 mM copper, room temperature
[1] = CueO-12.1, graft PRFMDYWEGLN (from primers; residues 384–394 replaced)
[2] = CueO-12.1CON, graft PRAMDYAEGAN (from primers)
[3] = CueO-PM2, graft TSFAEYWALLS (from primers), no MDM2
[4] = CueO-HA, HA epitope graft TSYPYDVPDYA (from primers), no antibody

B1: CueO (Escherichia coli K-12) (protein)
chain: AERPTLPIPDLLTTDARNRIQLTIGAGQSTFGGKTATTWGYNGNLLGPAVKLQRGKAVTVDIYNQLTEETTLHWHGLEVPGEVDGGPQGIIPPGGKRSVTLNVDQPAATCWFHPHQHGKTGRQVAMGLAGLVVIEDDEILKLMLPKQWGIDDVPVIVQDKKFSADGQIDYQLDVMTAAVGWFGDTLLTNGAIYPQHAAPRGWLRLRLLNGCNARSLNFATSDNRPLYVIASDGGLLPEPVKVSELPVLMGERFEVLVEVNDNKPFDLVTLPVSQMGMAIAPFDKPHPVMRIQPIAISASGALPDTLSSLPALPSLEGLTVRKLQLSMDPMLDMMGMQMLMEKYGDQAMAGMDHSQMMGHMGHGNMNHMNHGGKFDFHHANKINGQAFDMNKPMFAAAKGQYERWVISGVGDMMLHPFHIHGTQFRILSENGKPPAAHRAGWKDTVKVEGNVSEVLVKFNHDAPKEHAYMAHCHLLEHEDTGMMLGFTV
notes: C-terminal His6 tag, pET22b, full-length gene cloned, expressed in E. coli BL21(DE3); crystal models start at residue 29/30; given PDB entries are of the CueO-12.1 and CueO-PM2 variants
CueO-WT (358 reverted to Met)
  Km: 293.18 ± 23.08 µM
  kcat: 2.52 ± 0.136 s⁻¹
  kcat/Km: 8670 M⁻¹ s⁻¹

B2: CueO (Escherichia coli K-12; G386R/G389D/G391W/H387F/H390Y/H395N/M358I/M385P/M393G/N392E/N394L) (protein)
chain: AERPTLPIPDLLTTDARNRIQLTIGAGQSTFGGKTATTWGYNGNLLGPAVKLQRGKAVTVDIYNQLTEETTLHWHGLEVPGEVDGGPQGIIPPGGKRSVTLNVDQPAATCWFHPHQHGKTGRQVAMGLAGLVVIEDDEILKLMLPKQWGIDDVPVIVQDKKFSADGQIDYQLDVMTAAVGWFGDTLLTNGAIYPQHAAPRGWLRLRLLNGCNARSLNFATSDNRPLYVIASDGGLLPEPVKVSELPVLMGERFEVLVEVNDNKPFDLVTLPVSQMGMAIAPFDKPHPVMRIQPIAISASGALPDTLSSLPALPSLEGLTVRKLQLSMDPILDMMGMQMLMEKYGDQAMAGMDHSQMPRFMDYWEGLNMNHGGKFDFHHANKINGQAFDMNKPMFAAAKGQYERWVISGVGDMMLHPFHIHGTQFRILSENGKPPAAHRAGWKDTVKVEGNVSEVLVKFNHDAPKEHAYMAHCHLLEHEDTGMMLGFTV
notes: as for B1
[1]
  Km: 290.65 ± 44.33 µM
  kcat: 1.03 ± 0.0613 s⁻¹
  kcat/Km: 3500 M⁻¹ s⁻¹

B3: CueO (Escherichia coli K-12; M358I) (protein)
chain: AERPTLPIPDLLTTDARNRIQLTIGAGQSTFGGKTATTWGYNGNLLGPAVKLQRGKAVTVDIYNQLTEETTLHWHGLEVPGEVDGGPQGIIPPGGKRSVTLNVDQPAATCWFHPHQHGKTGRQVAMGLAGLVVIEDDEILKLMLPKQWGIDDVPVIVQDKKFSADGQIDYQLDVMTAAVGWFGDTLLTNGAIYPQHAAPRGWLRLRLLNGCNARSLNFATSDNRPLYVIASDGGLLPEPVKVSELPVLMGERFEVLVEVNDNKPFDLVTLPVSQMGMAIAPFDKPHPVMRIQPIAISASGALPDTLSSLPALPSLEGLTVRKLQLSMDPILDMMGMQMLMEKYGDQAMAGMDHSQMMGHMGHGNMNHMNHGGKFDFHHANKINGQAFDMNKPMFAAAKGQYERWVISGVGDMMLHPFHIHGTQFRILSENGKPPAAHRAGWKDTVKVEGNVSEVLVKFNHDAPKEHAYMAHCHLLEHEDTGMMLGFTV
notes: as for B1
  Km: 256.09 ± 9.59 µM
  kcat: 2.24 ± 0.19 s⁻¹
  kcat/Km: 8830 M⁻¹ s⁻¹

B4: CueO (Escherichia coli K-12; G386R/G389D/G391A/H387A/H390Y/H395N/M358I/M385P/M393G/N392E/N394A) (protein)
chain: AERPTLPIPDLLTTDARNRIQLTIGAGQSTFGGKTATTWGYNGNLLGPAVKLQRGKAVTVDIYNQLTEETTLHWHGLEVPGEVDGGPQGIIPPGGKRSVTLNVDQPAATCWFHPHQHGKTGRQVAMGLAGLVVIEDDEILKLMLPKQWGIDDVPVIVQDKKFSADGQIDYQLDVMTAAVGWFGDTLLTNGAIYPQHAAPRGWLRLRLLNGCNARSLNFATSDNRPLYVIASDGGLLPEPVKVSELPVLMGERFEVLVEVNDNKPFDLVTLPVSQMGMAIAPFDKPHPVMRIQPIAISASGALPDTLSSLPALPSLEGLTVRKLQLSMDPILDMMGMQMLMEKYGDQAMAGMDHSQMPRAMDYAEGANMNHGGKFDFHHANKINGQAFDMNKPMFAAAKGQYERWVISGVGDMMLHPFHIHGTQFRILSENGKPPAAHRAGWKDTVKVEGNVSEVLVKFNHDAPKEHAYMAHCHLLEHEDTGMMLGFTV
notes: as for B1
[2]
  Km: 234.51 ± 41.99 µM
  kcat: 1.61 ± 0.238 s⁻¹
  kcat/Km: 6830 M⁻¹ s⁻¹

B5: CueO (Escherichia coli K-12; G386S/G389E/G391W/H387F/H390Y/H395S/M358I/M385T/M388A/M393L/N392A/N394L) (protein)
chain: AERPTLPIPDLLTTDARNRIQLTIGAGQSTFGGKTATTWGYNGNLLGPAVKLQRGKAVTVDIYNQLTEETTLHWHGLEVPGEVDGGPQGIIPPGGKRSVTLNVDQPAATCWFHPHQHGKTGRQVAMGLAGLVVIEDDEILKLMLPKQWGIDDVPVIVQDKKFSADGQIDYQLDVMTAAVGWFGDTLLTNGAIYPQHAAPRGWLRLRLLNGCNARSLNFATSDNRPLYVIASDGGLLPEPVKVSELPVLMGERFEVLVEVNDNKPFDLVTLPVSQMGMAIAPFDKPHPVMRIQPIAISASGALPDTLSSLPALPSLEGLTVRKLQLSMDPILDMMGMQMLMEKYGDQAMAGMDHSQMTSFAEYWALLSMNHGGKFDFHHANKINGQAFDMNKPMFAAAKGQYERWVISGVGDMMLHPFHIHGTQFRILSENGKPPAAHRAGWKDTVKVEGNVSEVLVKFNHDAPKEHAYMAHCHLLEHEDTGMMLGFTV
notes: as for B1
[3]
  Km: 284.77 ± 25.50 µM
  kcat: 0.811 ± 0.0288 s⁻¹
  kcat/Km: 2830 M⁻¹ s⁻¹

B6: CueO (Escherichia coli K-12; G386S/G389Y/G391V/H387Y/H390D/H395A/M358I/M385T/M388P/M393D/N392P/N394Y) (protein)
chain: AERPTLPIPDLLTTDARNRIQLTIGAGQSTFGGKTATTWGYNGNLLGPAVKLQRGKAVTVDIYNQLTEETTLHWHGLEVPGEVDGGPQGIIPPGGKRSVTLNVDQPAATCWFHPHQHGKTGRQVAMGLAGLVVIEDDEILKLMLPKQWGIDDVPVIVQDKKFSADGQIDYQLDVMTAAVGWFGDTLLTNGAIYPQHAAPRGWLRLRLLNGCNARSLNFATSDNRPLYVIASDGGLLPEPVKVSELPVLMGERFEVLVEVNDNKPFDLVTLPVSQMGMAIAPFDKPHPVMRIQPIAISASGALPDTLSSLPALPSLEGLTVRKLQLSMDPILDMMGMQMLMEKYGDQAMAGMDHSQMTSYPYDVPDYAMNHGGKFDFHHANKINGQAFDMNKPMFAAAKGQYERWVISGVGDMMLHPFHIHGTQFRILSENGKPPAAHRAGWKDTVKVEGNVSEVLVKFNHDAPKEHAYMAHCHLLEHEDTGMMLGFTV
notes: as for B1
[4]
  Km: 286.06 ± 22.89 µM
  kcat: 1.49 ± 0.151 s⁻¹
  kcat/Km: 5170 M⁻¹ s⁻¹
